Test results: paper PMC2926592

Legend:
[1] = biological target: human XRCC1 R109A variant, recombinant, S-peptide- and His-tagged (human) (UniProt P18887); test: pull-down
[2] = biological target: human XRCC1 P161L population variant, recombinant, S-peptide- and His-tagged (human) (UniProt P18887); test: pull-down

What does the source list for “DNA polymerase β (POLβ), recombinant (from UniProt P06746 1-335) (enzyme)”?
fold decrease in POLβ retention against WT XRCC1 [1]: 5 fold; percent decrease in POLβ retention against WT XRCC1 [1]: 83%; percent decrease in POLβ retention against WT XRCC1 [2]: 20%
